Experimental findings from the supplement of paper PMC6379048 are described below.

What all share (test): EC50 of free RNA motif oligo competing protein binding to immobilised probe
For series [1], the target named is T1, SYNCRIP (UniProt O60506).
T1 sequence: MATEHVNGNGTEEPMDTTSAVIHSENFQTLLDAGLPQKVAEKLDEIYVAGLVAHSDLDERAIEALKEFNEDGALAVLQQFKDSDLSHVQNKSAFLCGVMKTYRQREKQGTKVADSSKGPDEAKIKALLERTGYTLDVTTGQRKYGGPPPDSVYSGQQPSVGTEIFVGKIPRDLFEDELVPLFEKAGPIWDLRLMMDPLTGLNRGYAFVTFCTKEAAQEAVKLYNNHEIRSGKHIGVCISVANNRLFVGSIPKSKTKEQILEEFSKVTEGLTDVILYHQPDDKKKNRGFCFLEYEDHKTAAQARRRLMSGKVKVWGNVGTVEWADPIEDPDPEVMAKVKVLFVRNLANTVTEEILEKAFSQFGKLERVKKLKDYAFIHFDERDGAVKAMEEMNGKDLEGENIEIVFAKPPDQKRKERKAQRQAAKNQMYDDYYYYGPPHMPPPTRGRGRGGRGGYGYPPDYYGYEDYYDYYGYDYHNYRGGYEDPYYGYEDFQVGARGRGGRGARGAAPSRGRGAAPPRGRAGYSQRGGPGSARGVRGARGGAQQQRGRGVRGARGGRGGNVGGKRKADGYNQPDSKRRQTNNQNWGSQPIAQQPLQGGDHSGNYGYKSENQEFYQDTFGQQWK
A digest of the protocol:
(§1)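 Over three biological replicates and two independent experiments, proteins captured on NHS-Sepharose beads carrying 5′-amino-C6 RNA oligos were quantified by label-free LC-MS/MS and normalised to the control. Capture lasted 30 min at 4°C and followed a 1 h pre-incubation at 4°C of HEK293-FT lysate (2.5 mg protein/well) with the same oligos in free form (0 nM to 30 μM). EC50 was taken from a four-parameter log-logistic fit, and Kd was EC50 corrected by a protein-dependent depletion factor.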

Series [2] has as its target T2, U2AF1 (UniProt Q01081).
T2 sequence: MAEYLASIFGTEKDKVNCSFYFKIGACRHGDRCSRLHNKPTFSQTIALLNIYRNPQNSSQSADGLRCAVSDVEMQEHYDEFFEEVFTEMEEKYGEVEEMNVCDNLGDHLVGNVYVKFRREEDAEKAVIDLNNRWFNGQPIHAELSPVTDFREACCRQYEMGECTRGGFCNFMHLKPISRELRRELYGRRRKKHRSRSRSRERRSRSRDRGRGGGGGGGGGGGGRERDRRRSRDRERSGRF
Summed up:
as §1

Series [3] has as its target MRPL39 (UniProt Q9NYK5). Summed up: as §1
Series [4] concerns the target MRPL49 (UniProt Q13405). A digest of the protocol:
as §1

Series [5] deals with RPS10 (UniProt P46783). A digest of the protocol: as §1
In series [6] the target is T3, GRSF1 (UniProt Q12849).
T3 sequence: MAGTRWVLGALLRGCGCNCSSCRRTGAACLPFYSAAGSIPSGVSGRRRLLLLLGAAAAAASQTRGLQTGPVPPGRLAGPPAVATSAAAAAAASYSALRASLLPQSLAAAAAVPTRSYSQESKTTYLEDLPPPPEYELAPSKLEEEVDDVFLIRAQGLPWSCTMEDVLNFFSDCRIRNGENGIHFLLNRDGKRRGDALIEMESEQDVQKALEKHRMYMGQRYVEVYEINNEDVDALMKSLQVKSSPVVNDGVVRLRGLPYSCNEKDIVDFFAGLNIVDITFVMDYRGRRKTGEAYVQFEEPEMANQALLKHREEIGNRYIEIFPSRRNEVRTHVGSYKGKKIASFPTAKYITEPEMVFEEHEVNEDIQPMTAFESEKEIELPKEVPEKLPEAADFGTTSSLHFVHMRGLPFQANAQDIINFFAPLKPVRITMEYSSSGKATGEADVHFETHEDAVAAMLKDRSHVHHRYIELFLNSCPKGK
Summed up:
as §1

Series [7] deals with MRPS26 (UniProt Q9BYN8). Summed up: as §1
Series [8] concerns the target PPIE (UniProt Q9UNP9). A digest of the protocol:
as §1

Series [9] addresses T4, PRPF4 (UniProt O43172).
T4 sequence: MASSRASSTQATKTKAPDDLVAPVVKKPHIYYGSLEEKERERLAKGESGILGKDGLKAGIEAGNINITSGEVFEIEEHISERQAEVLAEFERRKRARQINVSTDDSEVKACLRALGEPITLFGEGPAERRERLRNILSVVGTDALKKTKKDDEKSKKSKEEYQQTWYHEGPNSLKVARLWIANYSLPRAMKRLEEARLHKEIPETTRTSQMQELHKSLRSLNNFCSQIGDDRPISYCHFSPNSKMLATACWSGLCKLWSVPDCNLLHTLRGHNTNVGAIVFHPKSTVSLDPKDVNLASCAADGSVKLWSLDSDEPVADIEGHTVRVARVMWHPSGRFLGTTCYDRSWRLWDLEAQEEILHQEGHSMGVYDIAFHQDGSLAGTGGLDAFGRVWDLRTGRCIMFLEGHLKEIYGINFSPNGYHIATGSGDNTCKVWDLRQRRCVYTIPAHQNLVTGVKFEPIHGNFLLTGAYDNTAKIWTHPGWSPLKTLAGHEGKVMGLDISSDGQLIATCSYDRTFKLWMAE
A digest of the protocol: as §1

pEC50: −log10 of the molar value.

PPIE, sequence (Q9UNP9 whole entry): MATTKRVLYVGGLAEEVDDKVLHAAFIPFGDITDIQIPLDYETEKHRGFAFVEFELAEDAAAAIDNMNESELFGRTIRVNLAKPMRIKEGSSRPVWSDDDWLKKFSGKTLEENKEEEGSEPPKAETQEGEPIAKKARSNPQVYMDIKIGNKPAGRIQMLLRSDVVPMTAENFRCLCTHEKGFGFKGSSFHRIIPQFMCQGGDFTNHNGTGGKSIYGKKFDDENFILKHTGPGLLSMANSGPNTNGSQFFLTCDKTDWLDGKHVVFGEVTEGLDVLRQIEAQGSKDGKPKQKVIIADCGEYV

In general, pEC50 refers to −log10 of the EC50, conventionally taken in molar units. Read a low pEC50 as a large EC50. Regarding AAUAAA, the pEC50 in series [1] was 5.73; in [2], 5.84.

Turning to CUGUCCU, the pEC50 in series [3] is 6.61; in series [4] it was 6.96; in [5], 6.65.

For the sequence UAUUUAU, the pEC50 in series [6] is 4.74; in series [7], 7.46; in [8], 6.52; in series [9], 5.17.
